# Results: the supplement of paper PMC7125110
# ± gives the standard error. Fewer inactive variants are shown than the library holds.
# B1: glmS ribozyme (parent)
# chain: AUAAAAGCGCCAGAACUACAGAAAUGUAGUUGACGAGGAGGAGGUUUAUCGAAUUUUCGGCGGAUGCCUCCAAA
# What was measured:
# Conditions in all cases: with glucosamine-6-phosphate
# [1] = variants of: B1; experiment: self-cleavage kobs at 40 uM GlcN6P; higher = faster cleavage; RNA array
# Summary of the method: (§1)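 Glucosamine-6-phosphate in HEPES/KCl/Mg(OAc)2 buffer, at 40 μM to 10 mM, was flowed over barcoded ribozyme variants transcribed in situ by E. coli RNA polymerase on sequenced MiSeq chips. Tracking was through a hybridised Cy3 probe at 37 °C. kobs, kcat and KM came from exponential decay fits and weighted Michaelis–Menten fits of normalised per-tile medians.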
# [2] = variants of: B1; experiment: self-cleavage kobs at 640 uM GlcN6P; higher = faster cleavage; RNA array
# Summary of the method: as §1
# [3] = variants of: B1; experiment: self-cleavage kobs at 2500 uM GlcN6P; higher = faster cleavage; RNA array
# Summary of the method: as §1
# [4] = variants of: B1; experiment: self-cleavage kobs at 10000 uM GlcN6P; higher = faster cleavage; RNA array
# Summary of the method: as §1
# [5] = variants of: B1; experiment: self-cleavage kobs at 160 uM GlcN6P; higher = faster cleavage; RNA array
# Summary of the method: as §1
Variant,self-cleavage kobs at 40 uM GlcN6P [1] [s⁻¹],self-cleavage kobs at 640 uM GlcN6P [2] [s⁻¹],self-cleavage kobs at 2500 uM GlcN6P [3] [s⁻¹],self-cleavage kobs at 10000 uM GlcN6P [4] [s⁻¹],self-cleavage kobs at 160 uM GlcN6P [5] [s⁻¹]
C11U G60U,< 1e-05,< 1e-05,< 1e-05,< 1e-05,
C10A U31G A42U C50G U56A G60U C68G C71A,4.77e-05 ± 2e-05,0.00298 ± 0.00084,,,
G51C C67A,< 1e-05,< 1e-05,< 1e-05,,< 1e-05
G43A G51U,< 1e-05,,< 1e-05,,< 1e-05
G37U A39G G62A C68A,< 1e-05,,,< 1e-05,
A6G G41U U57G G59C C71U,< 1e-05,< 1e-05,< 1e-05,< 1e-05,< 1e-05
G38U U46C,< 1e-05,,< 1e-05,,
U45A U69C,0.000354 ± 5.9e-05,0.000518 ± 0.00013,0.00166 ± 0.0005,0.00144 ± 0.00031,0.000781 ± 0.00033
U30C U31A G35U G37C,< 1e-05,,,,
G44C U45A C71U,< 1e-05,,,,
U30G A42G,0.000448 ± 7.5e-05,0.00469 ± 0.001,0.0119 ± 0.0032,0.0206 ± 0.0039,0.000561 ± 0.00012
G7U A53U U57A,< 1e-05,,,,
G32C U46A,< 1e-05,< 1e-05,,,< 1e-05
C8U C10A G40C C67A,< 1e-05,,,,
A12U G37A C61G C70A,< 1e-05,,,< 1e-05,
G43U A53U U65G,< 1e-05,< 1e-05,,,
G40U C61A G66A C70U,< 1e-05,,,< 1e-05,
A52C C61U,< 1e-05,< 1e-05,< 1e-05,< 1e-05,
C8U G32C G60U,< 1e-05,< 1e-05,< 1e-05,< 1e-05,< 1e-05
C34U G41U G62U,< 1e-05,,,,
U30C C34U,< 1e-05,< 1e-05,,,
G59A A64G U69G,< 1e-05,,,,
G38C A39U,< 1e-05,< 1e-05,,,
A12C A53G C68U,6.52e-05 ± 1.6e-05,,,,

Variant,self-cleavage kobs at 40 uM GlcN6P [1] [s⁻¹],self-cleavage kobs at 640 uM GlcN6P [2] [s⁻¹],self-cleavage kobs at 2500 uM GlcN6P [3] [s⁻¹],self-cleavage kobs at 10000 uM GlcN6P [4] [s⁻¹],self-cleavage kobs at 160 uM GlcN6P [5] [s⁻¹]
A12U G44A C67U,0.00174 ± 0.00037,,,0.0153 ± 0.006,
C11U U49C,< 1e-05,< 1e-05,< 1e-05,,< 1e-05
A42C U65G C70G C71G,< 1e-05,,,,
A33U G41A C50A A53C G60C,< 1e-05,,,< 1e-05,
C8U C11U U45C G63C,< 1e-05,,,,
G13C U31A G51A,< 1e-05,,,,
G7U C11U,< 1e-05,< 1e-05,< 1e-05,< 1e-05,< 1e-05
U31G C61U C67U,< 1e-05,< 1e-05,,,
G60U C61U,< 1e-05,< 1e-05,,< 1e-05,
C11G A53C,< 1e-05,< 1e-05,< 1e-05,< 1e-05,< 1e-05
G9U G43U C70G,< 1e-05,,,< 1e-05,
G7A C10U U45G C70G,< 1e-05,< 1e-05,< 1e-05,< 1e-05,
G41U G44U A64U,< 1e-05,,,< 1e-05,
C34U A52C,< 1e-05,< 1e-05,< 1e-05,< 1e-05,< 1e-05
A48C G62A,< 1e-05,< 1e-05,< 1e-05,< 1e-05,< 1e-05
G13A U31C A36U C58A G60C G62A C67G,6.61e-05 ± 3.2e-05,,0.000425 ± 0.00017,,
A42G U47G C61U U69G,< 1e-05,,< 1e-05,,
G51C,< 1e-05,< 1e-05,< 1e-05,< 1e-05,< 1e-05
U45C C58G,< 1e-05,< 1e-05,,,< 1e-05
A6U C8G A48U G62C,< 1e-05,,,,
C16U U45C A48U C68U,< 1e-05,,,,
C10U A52U U65A,< 1e-05,< 1e-05,< 1e-05,< 1e-05,
C8G A15U,< 1e-05,< 1e-05,< 1e-05,< 1e-05,< 1e-05
